# Results as given in patent US20160068605A1 (Janssen / Centocor, published 2016).
# Where “and” joins values, the source holds several entries; their conditions need not be identical. Equal entries are not always repeated.
# Key:
# [1] = molecular target: T1, cell-surface CD3 epsilon on primary human T cells (human, UniProt P07766 23-207); test: flow cytometry on primary human T cells, anti-human IgG Alexa Fluor 647; MFI
# T1 construct: whole, on cells; part of the CD3/TCR complex on the cells
# Protocol: (§1) The resulting panel of anti-CD3 antibodies was tested for binding against cell-surface CD3ε on primary human T cells. To do this, binding of antibodies from expression supernatants was visualized using a polyclonal anti-human secondary antibody and analyzed by flow cytometry. Briefly, binding of anti-CD3 antibodies to cell-surface CD3ε was assessed by flow cytometry using primary Human T lymphocytes purified by negative selection (Biological Specialty, Colmar, USA). Expression supernatants or purified antibodies were normalized to 10 μg/ml in media or FACS buffer (BD BioSciences), respectively. 2×10⁵ cells were aliquoted into wells of a 96 well round-bottomed plate (CoStar) for labeling. Antibodies in expression supernatant were added to cells and incubated for 45 min at 4° C. Following centrifugation at 1300 rpm for 3 min and removal of supernatant, 50 μL of anti-human IgG (H+L) Alexa Fluor 647 secondary antibody (Life technologies Inc.) was incubated with the cells at a final concentration of 10 μg/mL for 30 min at 4° C. away from direct light. Following washing and resuspension in 30 μL FACs buffer (BD BioSciences). Sample collection was performed on an Intellicyt HTFC system using ForeCyt software. Viable single cells were gated prior to analysis of binding using the green or red fixable live/dead dyes (Life Technologies Inc.) and forward/side scatter area and height parameters, respectively. Graphs were generated in GraphPad Prism version 5 using mean fluorescence intensity values.
# [2] = molecular target: T2, cell-surface CD3 epsilon on primary cynomolgus T cells (cynomolgus monkey, UniProt Q95LI5 22-198); test: flow cytometry on primary cynomolgus CD4+ T cells, anti-human IgG Alexa Fluor 647; MFI
# T2 construct: whole, on cells; also called cynomolgus CD3e; Cyno T-cells
# T2 sequence (Q95LI5 22-198): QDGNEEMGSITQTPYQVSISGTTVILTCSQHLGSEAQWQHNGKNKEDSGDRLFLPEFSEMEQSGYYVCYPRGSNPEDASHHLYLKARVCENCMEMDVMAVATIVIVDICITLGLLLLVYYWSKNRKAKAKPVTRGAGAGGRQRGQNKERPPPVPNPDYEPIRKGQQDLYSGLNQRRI
# Protocol: as §1
# Binding analysis of the anti-CD3 hits to primary cynomolgusCD4⁺ T cells was then tested in order to assess the retention of cross-reactivity. Purified CD4⁺ T cells from the peripheral blood of cynomolgus monkeys (Zen Bio, Triangle Research Park, USA were used). Assay protocols were similar to those described above.
# [3] = molecular target: T3, Recombinant human CD123 SP1 ECD-His tag protein (human, UniProt P26951 20-305); test: SPR Biacore 3000, captured mAb
# T3 construct: bought from R&D Systems (#301-R3/CF); biotinylated for some assays; also called rhCD123 SP1; huCD123 ECD SP1
# T3 sequence: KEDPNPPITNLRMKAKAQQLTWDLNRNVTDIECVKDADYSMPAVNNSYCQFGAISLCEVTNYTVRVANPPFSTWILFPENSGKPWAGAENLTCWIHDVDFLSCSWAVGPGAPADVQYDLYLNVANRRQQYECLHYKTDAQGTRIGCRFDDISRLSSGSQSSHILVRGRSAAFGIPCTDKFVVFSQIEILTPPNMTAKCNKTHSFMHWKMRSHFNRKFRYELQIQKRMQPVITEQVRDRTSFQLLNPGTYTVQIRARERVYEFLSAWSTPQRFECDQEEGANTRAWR
# Protocol: (§2) Kinetic studies were performed at 25° C. using a Biacore 3000 (BIAcore, Inc., now part of GE Healthcare). […] Sheep anti-Human Fd specific antibody (The binding site Prod # PC075) was covalently attached to two flow cells (normally 3 and 4) of the carboxymethyl dextran coated gold surfaces (CM-5 Chip, Biacore). The carboxymethyl groups of dextran were activated with N-Ethyl-N′-(3-Dimethylaminopropyl)carbodiimide (EDC) and N-hydroxysuccinimide (NHS). The antibodies were coupled at pH 4.5 in 10 mM sodium acetate. Any remaining reactive sites on the surface were blocked by reaction with ethanolamine. […] Association data was collected for 2 min followed by 10 min of dissociation. The surface was regenerated with 30 μL of 100 mM H3PO4 100 μL/min. All samples were prepared in D-PBS containing 3 mM EDTA and 0.005% surfactant P20. Data reported is the difference in SPR signal between the flow cell containing the captured antibody or Fab and a reference cell without captured antibody or Fab. Additional instrumental contributions to the signal were removed by subtraction of the data from the blank injection from the reference-subtracted signal. Data were performed in triplicate and analyzed by fitting association and dissociation phases at all concentrations (global fit) with a 1:1 binding model using the BIAevaluation software (BIAcore, Inc.). […] Data presented is an average.
# [4] = molecular target: T4, cyno CD123 ECD displayed on pDisplay-transfected cells (cynomolgus monkey); test: MSD cell binding on 293F pDisplay cells; fold change over background; parental 293F cells as control
# T4 construct: ECD anchored on the surface of stably transfected HEK293 cells; also called cynoCD123 SP1 cells; cynoCD123 cells
# T4 chain: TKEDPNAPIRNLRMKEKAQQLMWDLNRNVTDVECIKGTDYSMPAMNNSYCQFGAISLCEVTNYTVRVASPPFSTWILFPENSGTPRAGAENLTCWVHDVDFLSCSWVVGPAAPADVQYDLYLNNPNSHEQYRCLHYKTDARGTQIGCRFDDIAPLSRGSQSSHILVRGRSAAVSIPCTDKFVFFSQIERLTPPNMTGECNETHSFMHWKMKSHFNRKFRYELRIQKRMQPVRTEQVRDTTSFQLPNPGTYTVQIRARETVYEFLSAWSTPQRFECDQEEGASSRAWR
# Protocol: (§3) The object of the screening assay was to identify antibodies that bound to cells expressing hCD123 SP1 and SP2 as well as cross reactivity with cells expressing cynoCD123 SP1.
# (§4) Cells were immobilized and phages were assayed in triplicate. […] 5000 cells per well were plated into a 384 well plate (MA6000, cat. L21XB, MSD) and allowed to adhere for 2 hr. Cells were then blocked with 20% FBS in PBS (Gibco) for 15 mins. Antibody supernatants were then added and left at RT for 1 hr. Cells were washed 3 times with PBS and a ruthenium labeled secondary antibody (Jackson Immuno Research) was then added at 1 μg/mL and incubated for 1 hr at room temperature. A further washing step was then applied and 35 μL per well of MSD Read buffer T (surfactant free) was then added and incubated for 30 min for detection. Plates were then read using Sector Imager 2400 (MSD). Data was normalized to controls and graphed using GraphPad Prism Version 5. A positive binder was determined to be a hit with a signal 3× greater than background (FIGS. 2A, B and C).
# [5] = molecular target: T3, Recombinant human CD123 SP1 ECD-His tag …; test: SPR ProteOn, captured mAb
# Protocol: (§5) The biosensor surface was prepared by covalently coupling Goat anti-Human IgG (Fc) to the surface of a GLC chip (BioRad) using the manufacturer instructions for amine-coupling chemistry. […] The RU immobilized also included a goat anti-mouse Fc antibody that was added to capture other antibodies not included in the ones reported here. Since the mixture was 1:1 about 50% of these RU immobilized are expected to be goat anti-human Fc. The kinetic experiments were performed at 25° C. in running buffer (PBS pH 7.4, 0.005% P20, 3 mM EDTA). […] The reference spots (Goat anti-Human IgG (Fc)-modified surface) containing no candidate captured were used as a reference surface. Capture of mAb was followed by 3 min injection (association phase) of antigen at 40 μL/min, followed by 10 min of buffer flow (dissociation phase). […] Data was processed on the instrument software. Double reference subtraction of the data was performed by subtracting the curves generated by buffer injection from the reference-subtracted curves for analyte injections. Kinetic analysis of the data was performed using 1:1 Langmuir binding model with group fit. The result for each mAb was reported in the format of Kₐ (kon or on-rate), Kd (koff or off-rate), KD (Equilibrium dissociation constant) (Table 5).
# [6] = molecular target: T3, Recombinant human CD123 SP1 ECD-His tag …; test: SPR Biacore 3000, captured Fab
# Protocol: as §2
# [7] = molecular target: T5, human CD123 SP2 ECD displayed on pDisplay-transfected cells (human, UniProt P26951 101-305); test: MSD cell binding on 293F pDisplay cells; fold change over background; parental 293F cells as control
# T5 construct: ECD anchored on the surface of stably transfected HEK293 cells; also called hCD123 SP2 cells; pDisplay CD123SP2
# T5 sequence: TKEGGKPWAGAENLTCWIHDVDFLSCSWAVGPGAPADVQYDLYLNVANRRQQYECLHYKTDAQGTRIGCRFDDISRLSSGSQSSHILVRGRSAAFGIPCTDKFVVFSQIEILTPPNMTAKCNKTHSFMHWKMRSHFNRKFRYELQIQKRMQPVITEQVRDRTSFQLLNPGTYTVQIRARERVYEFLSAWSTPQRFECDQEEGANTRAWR
# Protocol: as §3, §4
# [8] = molecular target: T6, Recombinant human CD123 SP2 ECD protein (human, UniProt P26951 101-303); test: SPR ProteOn, captured mAb
# T6 construct: also called rhCD123 SP2; CD123 ECD SP2
# T6 sequence: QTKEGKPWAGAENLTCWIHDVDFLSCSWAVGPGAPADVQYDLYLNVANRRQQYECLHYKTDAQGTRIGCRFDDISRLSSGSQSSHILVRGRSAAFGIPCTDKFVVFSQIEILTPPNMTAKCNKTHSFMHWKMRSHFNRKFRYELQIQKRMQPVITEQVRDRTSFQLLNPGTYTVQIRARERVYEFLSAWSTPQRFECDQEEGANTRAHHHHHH
# Protocol: as §5
# T1 sequence (P07766 23-207): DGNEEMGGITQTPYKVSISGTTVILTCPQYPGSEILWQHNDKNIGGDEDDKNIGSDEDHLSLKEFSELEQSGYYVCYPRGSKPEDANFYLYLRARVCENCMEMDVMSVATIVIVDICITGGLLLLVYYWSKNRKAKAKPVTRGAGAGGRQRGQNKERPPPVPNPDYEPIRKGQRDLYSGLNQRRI
binder,measurement,setting,value
"G11 (antibody, V domains shown, in-house phage-derived anti-CD3 positive control with the same Fc region as the tested antibodies) VH: EVQLLESGGGLVQPGGSLRLSCAASGFTFSSYGMSWVRQAPGKGLEWVSGINGGGGSKYYADSVKGRFTISRDNSKNTLYLQMNSLRAEDTAVYYCAKTSAQRFDYWGQGTLVTVSS VL: not shown",binding result,[1],binds
"CD3B148 (antibody, IgG1, V domains shown, IgG1 constant region with L234A, L235A, F405L; human lambda light chain constant region) VH: EVQLLESGGGLVQPGGSLRLSCAASGFTFNTYAMNWVRQAPGKGLEWVARIRSKYNNYATYYADSVKGRFTISRDNSKNTLYLQMNSLRAEDTAVYYCAKHGNFGNSYVSWFAYWGQGTLVTVSS VL: QSVLTQPPSVSAAPGQKVTISCRSSTGAVTTSNYANWVQQLPGTAPKGLIGGTNKRAPGIPDRFSGSKSGTSATLGITGLQTGDEADYYCALWYSNLWVFGGGTKLTVL",binding result,[2],no binding (tested: not printed)
"CD3B144 (antibody, IgG1, V domains shown, IgG1 constant region with L234A, L235A, F405L; human lambda light chain constant region) VH: EVQLVESGGGLVQPGGSLRLSCAASGFTFNTYAMNWVRQAPGKGLEWVARIRSKYNNYATYYAASVKGRFTISRDDSKNSLYLQMNSLKTEDTAVYYCARHGNFGNSYVSWFAYWGQGTLVTVSS VL: QSVLTQPPSVSAAPGQKVTISCRSSTGAVTTSNYANWVQQLPGTAPKGLIGGTNKRAPGIPDRFSGSKSGTSATLGITGLQTGDEADYYCALWYSNLWVFGGGTKLTVL",binding result,[1],no binding
"I3RB35 (antibody, IgG1, V domains shown, IgG1) VH: QVQLVQSGAEVKKPGSSVKVSCKASGGTFSSYAISWVRQAPGQGLEWMGGIIPIFGTANYAQKFQGRVTITADESTSTAYMELSSLRSEDTAVYYCARHLFWDAGPLDYWGQGTLVTVSS VL: DIQMTQSPSSLSASVGDRVTITCRASQSISSYLNWYQQKPGKAPKLLIYAASSLQSGVPSRFSGSGSGTDFTLTISSLQPEDFATYYCQQYFSPPYTFGQGTKVEIK",Kd,[3],4.8 nM
same,koff,[3],0.00258 s⁻¹
same,kon,[3],540000 M⁻¹ s⁻¹
same,binding result,[4],binds
same,Kd,[5],2.83 nM
same,koff,[5],0.00293 s⁻¹
same,kon,[5],1.04e+06 M⁻¹ s⁻¹
"I3RB122 (Fab, V domains shown, also called Fab of I3RB37) VH: QVQLVQSGAEVKKPGSSVKVSCKASGGTFSSYAISWVRQAPGQGLEWMGGIIPIFGTANYAQKFQGRVTITADESTSTAYMELSSLRSEDTAVYYCARDKTDFPSRLDYWGQGTLVTVSS VL: DIQMTQSPSSLSASVGDRVTITCRASQSIATWLNWYQQKPGKAPKLLIYAASSLQSGVPSRFSGSGSGTDFTLTISSLQPEDFATYYCQQYITFPLTFGQGTKVEIK",Kd,[6],11.5 nM
same,koff,[6],0.0045 s⁻¹
same,kon,[6],393000 M⁻¹ s⁻¹
"I3RB37 (antibody, IgG1, V domains shown, IgG1) VH: QVQLVQSGAEVKKPGSSVKVSCKASGGTFSSYAISWVRQAPGQGLEWMGGIIPIFGTANYAQKFQGRVTITADESTSTAYMELSSLRSEDTAVYYCARDKTDFPSRLDYWGQGTLVTVSS VL: DIQMTQSPSSLSASVGDRVTITCRASQSIATWLNWYQQKPGKAPKLLIYAASSLQSGVPSRFSGSGSGTDFTLTISSLQPEDFATYYCQQYITFPLTFGQGTKVEIK",Kd,[3],9.7 nM
same,koff,[3],0.0053 s⁻¹
same,kon,[3],545000 M⁻¹ s⁻¹
same,binding result,[4],binds
same,binding result,[7],no binding (tested: 10 µg/mL)
same,Kd,[5],6.27 nM and 5.15 nM
same,koff,[5],0.00669 s⁻¹ and 0.00621 s⁻¹
same,kon,[5],1.07e+06 M⁻¹ s⁻¹ and 1.21e+06 M⁻¹ s⁻¹
"I3RB9 (antibody, IgG1, V domains shown, IgG1; also called I3RB09) VH: QVQLVQSGAEVKKPGSSVKVSCKASGGTFSSYAISWVRQAPGQGLEWMGGIIPIFGTANYAQKFQGRVTITADESTSTAYMELSSLRSEDTAVYYCARGARWFNPPENLDYWGQGTLVTVSS VL: not shown",binding result,[4],no binding (tested: 10 µg/mL)
same,binding result,[7],no binding (tested: 10 µg/mL)
same,binding result,[8],no binding (tested: 400 nM)
same,Kd,[5],12.4 nM
same,koff,[5],0.00843 s⁻¹
same,kon,[5],680000 M⁻¹ s⁻¹
